In patent US20210292393A1 (published 2021):
Substitutions are numbered along the chain they refer to.

B1: antibody 316 (antibody, V domains shown)
VH: QVHLVESGGGVVQPGRSLRLSCAASGFTLTAYAMHWVRQAPGKRLEWVALISYDGSVKKYADSVKGRITVSGDTSTNTLHLQMNSLRADDTAVYYCVRGGVSGPNSFDLWGQGTMVTVSS
VL: DVVMTQSPLSLPVTLGQPASMSCRSSQSLEYSDGNTYVNWFHQRPGQSPRRLIYKVSYRDSGVPDRFSGSGSGTDFTLQISRVEAEDVGIYYCMQGTHWPVTFGQGTKVEIK
B2: antibody 317 (antibody, V domains shown)
VH: QVQLVQSGAEVKKPGASVKVSCKVSGYTLTELSMHWVRQAPGKGLEWMGGFDPEDGETIYAQKFQGRVTMTEDTSTDTAYMELSSLRSEDTAVYYCASSPAAAGTSQYYYYYGMDVWGQGTTVTVSS
VL: not shown
B3: antibody 320 (antibody, V domains shown)
VH: QVQLVQSGAEVKKPGASVKVSCKASGYTFTSYGISWVRQAPGQGLEWMGWISAYNGNTNYAQKLQGRVTMTTDTSTRTAYMELRSLRSDDTAVYYCARVGCYYDSSGYSCAENFQHWGQGTLVTVSS
VL: QSVLTQPPSVSGAPGQRVTISCTGSSSNIGAGYDVHWYQQLPGTAPKLLIYGNSNRPSGVPDRFSGSKSGTSASLAITGLQAEDEADYYCQSYDSSLSALFGGGTKLTVL
B4: antibody 323 (antibody, V domains shown)
VH: QVQLVQSGAEVKKPGASVKVSCKVSGYTLTELSMHWVRQAPGKGLEWMGGFDPEDGETIYAQKFQGRVTMTEDTSTDTAYMELSSLRSEDTAVYYCATSTIFAPGGWFDPWGQGTLVTVSS
VL: QSALTQPASVSGSPGQSITISCTGTSSDVGSYNLVSWYQQHPGKAPKLMIYEVSKRPSGVSNRFSGSKSGNTASLTISGLQAEDEADYYCCSYAGSTHYVFGTGTKVTVL
B5: antibody 324 (antibody, V domains shown)
VH: QVQLQESGPGLVKPSGTLSLTCAVSGGSISSSNWWSWVRQPPGKGLEWIGEIYHSGSTNYNPSLKSRVTISVDNSKNQFSLKLSSVTAADTAVYYCARESVAAAGISYYYYGMDVWGQGTTVTVSS
VL: EIVLTQSPGTLSLSPGERATLSCRASQSVSGRYLAWYQQKPGQAPRLLIYGASSRATGIPDRFSGSGSGTDFTLTISRLEPEDFAVYYCQHYGSSPGTFGQGTRLEIK
B6: antibody 326 (antibody, V domains shown)
VH: QITLKESGPTLVKPTQTLTLTCTFSGFSLNTSGVGVGWIRQPPGKALEWLSLIFWNDDKRYSPSLRSRLTITKDTSKNQVVLTMTNMDPVDTATYFCAHRNSGWSLKFDSWGQGSLVTVSA
VL: DIQMTQSPSSVSASVGDRVTITCRARQGISSWLVWYQQKPGKAPKLLIFGASSLQSGVPSRFNASGTGTEFTLTISSLQPEDFATYYCQQADSFPITFGQGTRLEIK
B7: antibody 327 (antibody, V domains shown)
VH: QVQLVESGGGVVQPGRSLRLSCAASGFNLSNYAMHWVRQASGKGLEWVSLISYDGSIKYYTDSVKGRFTVSGDNSKNTLFLQMNSLRPDDSALYYCVRGGVSGPNSFDMWGQGTTVTVSS
VL: B1 VL with M21I, E30V, H42Q, K55Q, Y58I, D60A, T77A, Q79K
B8: antibody 329 (antibody, V domains shown)
VH: EVQLVESGGGLVQPGGSLRLSCAASGFTFSSYWMHWVRQAPGKGLVWVSRINSDGSSTSYADSVKGRFTISRDNAKNTLYLQMNSLRAEDTAVYYCAREGIVATITLDYWGQGTLVTVSS
VL: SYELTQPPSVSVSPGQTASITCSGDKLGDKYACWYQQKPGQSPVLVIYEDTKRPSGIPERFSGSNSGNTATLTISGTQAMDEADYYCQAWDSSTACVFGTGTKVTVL
B9: antibody 331 (antibody, V domains shown)
V domain 1: QITLKESGPTLVKPTETLTLTCSFSGFSLTKTGEAAGWIRQAPGRALEWVTVIFWDDDKRYSPSLQNRISVTKDTSKNQVVLRMTNVARFDTGTYFCWAMGGPGKEYFGQGTLVAVSS
V domain 2: QSVLTQPPSVSGAPGQRVTISCTGTSSSIGPYSDVHWYQHVSGKAPRLLIFGNSNRPSGVPDRFSGSKSGTSASLVIAGLQAEDEADYYCQSYDSSLGEIYVFGTGTTVTVL
B10: antibody 339 (antibody, V domains shown)
V domain 1: B9 V domain 1 with K31R, N67S, I69L, S70T, R83T, G93A, L113Q
V domain 2: B9 V domain 2
B11: antibody 340 (antibody, V domains shown)
VH: QVQLVQSGAEVKKPGASVKVSCKASGYTFTSYDINWVRQATGQGLEWMGWMNPNSGNTGYAQKFQGRVTMTRNTSISTAYMELSSLRSEDTAVYYCARGRYCTGGVCWGDWYFDLWGRGTLVTVSS
VL: QSVLTQPPSVSGAPGQRVTISCTGSSSNIGAGYDVHWYQQLPGTAPKFLIYGNSNRPSGVPDRFSGSKSGTSASLAITGLQAEDEADYYCQSYDSSLSGPVFGGGTKLTVL
B12: antibody 344 (antibody, V domains shown)
VH: QVQLVESGGGVVQPGRSLRLSCAASGFTFSSYAMHWVRQAPGKGLEWMAVISYDGSNKYYADSVKGRFTISRDNSKNTLYLQMNSLRAEDTAVYFCAKGYSGSYYEPFDYWGQGTLVTVSS
VL: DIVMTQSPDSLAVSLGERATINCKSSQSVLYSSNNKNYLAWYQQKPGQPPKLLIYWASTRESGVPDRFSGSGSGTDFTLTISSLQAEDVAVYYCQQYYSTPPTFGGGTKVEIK
B13: antibody 345 (antibody, V domains shown)
VH: QVQLQESGPGLVKPSQTLSLTCTVSGGSISSGDYYWSWIRQPPGKGLEWIGYIYYSGSTYYNPSLKSRVTISVDTSKNQFSLKLSSVTAADTAVYYCARVGMVDNWNFEGNWFDPWGQGTLVTVSS
VL: QSALTQPRSVSGSPGQSVTISCTGTSSDVGGYNYVSWYQQHPGKAPKLMIYDVSKRPSGVPDRFSGSKSGNTASLTISGLQAEDEADYYCCSYAGSVVFGGGTKLTVL
B14: antibody 348 (antibody, V domains shown)
VH: QVQLVQSGSELKKPGASVKVSCKASGYTFTSYAMNWVRQAPGQGLEWMGWINTNTGNPTYAQGFTGRFVFSLDTSVSTAYLQISSLKAEDTAVYYCARDHELPNTSSWFGHFEYWGQGTLVTVSS
VL: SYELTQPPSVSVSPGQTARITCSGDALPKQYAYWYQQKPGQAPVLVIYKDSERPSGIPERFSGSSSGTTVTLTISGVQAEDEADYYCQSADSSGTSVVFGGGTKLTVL
B15: antibody 363 (antibody, V domains shown)
VH: EVQLLESGGGLVQPGGSLRLSCAASGFTFSTYAMSWVRQAPGKGLEWVSAISGSGGSTYYADSVKGRFTISRDNSKNTLYLQMNSLRAEDTAVYYCASGYSPDYWGQGTLVTVSS
VL: not shown
B16: antibody 365 (antibody, V domains shown)
VH: B7 VH with N31S
VL: B1 VL with M21I, E30V, H42Q, Y58I, D60A, T77A, Q79K, I90V
B17: antibody 366 (antibody, V domains shown)
VH: QVQLVESGGGVVQPGRSLRLSCAASGFTFSSYAMHWVRQAPGKGLEWVAVISYDGSNKYYADSVKGRFTISRDNSKNTLYLQMNSLRAEDTAVYYCARGLVGYNWFDPWGQGTLVTVSS
VL: DIQMTQSPSSVSASVGDRVTITCRASQGISSWLAWYQQKPGKAPKLLIYAASSLQSGVPSRFSGSGSGTDFTLTISSLQPEDFATYYCQQANSFTFGPGTKVDIK
B18: antibody 514 (antibody, V domains shown)
VH: EVQLVQSGAEVKKPGATVKISCKVSGYTFTDYYMHWVQQAPGKGLEWMGLVDPEDGETIYAEKFQGRVTITADTSTDTAYMELSSLRSEDTAVYYCATDCKYDILTGHYSAGYYYYGMDVWGQGTTVTVSS
VL: DIQMTQSPSSLSASVGDRVTITCRASQGISNYLAWFQQKPGKAPKSLIYAASSLQSGVPSKFSGSGSGTDFTLTISSLQPEDFATYYCQQYNSYPFTFGGGTKVEIK
B19: antibody 516 (antibody, V domains shown)
VH: QVELQQWGAGLLKPSETLSLTCAVYGGSFSGYYWSWIRQPPGKGLEWIGEINHSGSTNYNPSLKSRVTISIDTSKNQFSLKLSSVTAADTAVYYCARGTTVTTFFAPHWYFDLWGRGTLVTVSS
VL: QSALTQPASVSGSPGQSITISCTGTSSDVGGYNYVSWYQQHPGKAPKLMIYDVSNRPSGVSNRFSGSKSGNTASLTISGLQAEDEADYYCSSYTSSSTPYVFGTGTKVTVL
B20: antibody 517 (antibody, V domains shown)
VH: B7 VH with P88A
VL: B1 VL with M21I, E30V, H42Q, K55Q, Y58I, D60A, T77A, Q79K, I90V
B21: antibody 522 (antibody, V domains shown)
VH: EVQLVESGGGLVQPGGSLRLSCAASGFNFSSYSMNWVRQAPGKGLEWVSYISSSSSTIYYADSVKGRFTISRDNAKNSLYLQMNSLRDEDTAVYYCARGPEWDIVVVQAENWFDPWGQGTLVTVSS
VL: SYELTQPPSVSVSPGQTARITCSGDALPKQYVYWYQQKPGQAPVLVIYKDSERPSGIPERFSGSSSGTTVTLTISGVQAEDEADYYCQSADSSGTYRGVFGGGTKLTVL
B22: antibody 523 (antibody, V domains shown)
VH: EVQLVESGGVSVQPGGSLRLSCAASGFSFNTYDMHWVRQGTGKGLEWVSGIGTAGDTYYSDSVKGRCTISRDNAKNSLHLLVKSVRAADTAVYYCARGVGGIIDYWGQGTLVTVSS
VL: NFVLSQPHSVSESPGKTVTISCTGNSGSIATKYVQWFQQRPGSAPTTVIYEDNQRPSGVPDRFSGSSDSSSNSASLTISGLKTEDEAHYYCQSYHNRRWVFGGGTKLTVL
B23: antibody 527 (antibody, V domains shown)
VH: QLQLQESGPGLVKPSETLSLTCTVSGGSISSSSYYWGWIRQPPGKGLEWIGSIYYSGSTYYNPSLKSRVTISVDTSKNQFSLKLSSVTAADTAMYYCASHVVVIASSYWCFDLWGRGTLVTVSS
VL: QSALTQPASVSGSPGQSITISCTGTSSDVGGYNYVSWYQQHPGKAPKLMIYDVSNRPSGVSNRFSGSKSGNTASLTISGLQAEDEADYYCSSYTSISTWVFGGGTKLTVL

target: SARS-CoV-2 full length spike protein, V483A mutant, expressed on the surface of CHO cells (SARS-CoV-2, UniProt P0DTC2 14-1273)

Binder	median fluorescence intensity, fold over isotype control [fold over isotype]
B1	10.4
B2	10.3
B3	19.7
B4	19
B5	24.9
B6	10.2
B7	10.4
B8	10.6
B9	18.1
B10	18.2
B11	26.3
B12	8.15
B13	9.41
B14	14.2
B15	15.1
B16	11.2
B17	9.74

target: SARS-CoV-2 full length spike protein, V483A mutant (SARS-CoV-2, UniProt P0DTC2 14-1273)

Binder	median fold over isotype [fold over isotype]
B18	1.39
B19	2.61
B20	11.5
B21	6.75
B22	3.76
B23	7.97
